Experimental data taken from the supplement of paper PMC12458215.
± gives the uncertainty stated by the source.

System: HEK293T
Experiment: plasma membrane surface immunostaining intensity (anti-HA, deep receptor scanning) (arbitrary fluorescence units); higher = higher plasma membrane expression
Conditions: GPCR class: A

Row | Sequence | plasma membrane surface immunostaining intensity
1 | MVFLSGNASDSSNCTQPPAPVNISKAILLGVILGGLILFGVLGNILVILSVACHRHLHSVTHYYIVNLAVADLLLTSTVLPFSAIFEVLGYWAFGRVFCNIWAAVDVLCCTASIMGLCIISIDRYIGVSYPLRYPTIVTQRRGLMALLCVWALSLVISIGPLFGWRQPAPEDETICQINEEPGYVLFSALGSFYLPLAIILVMYCRVYVVAKRESRGLKSGLKTDKSDSEQVTLRIHRKNAPAGGSGMASAKTKTHFSVRLLKFSREKKAAKTLGIVVGCFVLCWLPFFLVMPIGSFFPDFKPSETVFKIVFWLGYLNSCINPIIYPCSSQEFKKAFQNVLRIQCLCRKQSSKHALGYTLHPPSQAVEGQHKDMVRIPVGSRETFYRISKTDGVCEWKFFSSMPRGSARITVSKDQSSCTTARVRSKSFLQVCCCVGPSTPSLDKNHQVPTIKVHTISLSENGEEV [ADRA1A] | 2110 ± 600
2 | MVLEVSDHQVLNDAEVAALLENFSSSYDYGENESDSCCTSPPCPQDFSLNFDRAFLPALYSLLFLLGLLGNGAVAAVLLSRRTALSSTDTFLLHLAVADTLLVLTLPLWAVDAAVQWVFGSGLCKVAGALFNINFYAGALLLACISFDRYLNIVHATQLYRRGPPARVTLTCLAVWGLCLLFALPDFIFLSAHHDERLNATHCQYNFPQVGRTALRVLQLVAGFLLPLLVMAYCYAHILAVLLVSRGQRRLRAMRLVVVVVVAFALCWTPYHLVVLVDILMDLGALARNCGRESRVDVAKSVTSGLGYMHCCLNPLLYAFVGVKFRERMWMLLLRLGCPNQRGLQRQPSSSRRDSSWSETSEASYSGL [CXCR3] | 530 ± 49
3 | MVNLRNAVHSFLVHLIGLLVWQSDISVSPVAAIVTDIFNTSDGGRFKFPDGVQNWPALSIVIIIIMTIGGNILVIMAVSMEKKLHNATNYFLMSLAIADMLVGLLVMPLSLLAILYDYVWPLPRYLCPVWISLDVLFSTASIMHLCAISLDRYVAIRNPIEHSRFNSRTKAIMKIAIVWAISIGVSVPIPVIGLRDEEKVFVNNTTCVLNDPNFVLIGSFVAFFIPLTIMVITYCLTIYVLRRQALMLLHGHTEEPPGLSLDFLKCCKRNTAEEENSANPNQDQNARRRKKKERRPRGTMQAINNERKASKVLGIVFFVFLIMWCPFFITNILSVLCEKSCNQKLMEKLLNVFVWIGYVCSGINPLVYTLFNKIYRRAFSNYLRCNYKVEKKPPVRQIPRVAATALSGRELNVNIYRHTNEPVIEKASDNEPGIEMQVENLELPVNPSSVVSERISSV [HTR2C] | 974 ± 180
4 | MVNNFSQAEAVELCYKNVNESCIKTPYSPGPRSILYAVLGFGAVLAAFGNLLVMIAILHFKQLHTPTNFLIASLACADFLVGVTVMPFSTVRSVESCWYFGDSYCKFHTCFDTSFCFASLFHLCCISVDRYIAVTDPLTYPTKFTVSVSGICIVLSWFFSVTYSFSIFYTGANEEGIEELVVALTCVGGCQAPLNQNWVLLCFLLFFIPNVAMVFIYSKIFLVAKHQARKIESTASQAQSSSESYKERVAKRERKAAKTLGIAMAAFLVSWLPYLVDAVIDAYMNFITPPYVYEILVWCVYYNSAMNPLIYAFFYQWFGKAIKLIVSGKVLRTDSSTTNLFSEEVETD [TAAR9] | 136 ± 34
5 | MVPHLLLLCLLPLVRATEPHEGRADEQSAEAALAVPNASHFFSWNNYTFSDWQNFVGRRRYGAESQNPTVKALLIVAYSFIIVFSLFGNVLVCHVIFKNQRMHSATSLFIVNLAVADIMITLLNTPFTLVRFVNSTWIFGKGMCHVSRFAQYCSLHVSALTLTAIAVDRHQVIMHPLKPRISITKGVIYIAVIWTMATFFSLPHAICQKLFTFKYSEDIVRSLCLPDFPEPADLFWKYLDLATFILLYILPLLIISVAYARVAKKLWLCNMIGDVTTEQYFALRRKKKKTIKMLMLVVVLFALCWFPLNCYVLLLSSKVIRTNNALYFAFHWFAMSSTCYNPFIYCWLNENFRIELKALLSMCQRPPKPQEDRPPSPVPSFRVAWTEKNDGQRAPLANNLLPTSQLQSGKTDLSSVEPIVTMS [GPR83] | 490 ± 39
6 | MWGRLLLWPLVLGFSLSGGTQTPSVYDESGSTGGGDDSTPSILPAPRGYPGQVCANDSDTLELPDSSRALLLGWVPTRLVPALYGLVLVVGLPANGLALWVLATQAPRLPSTMLLMNLAAADLLLALALPPRIAYHLRGQRWPFGEAACRLATAALYGHMYGSVLLLAAVSLDRYLALVHPLRARALRGRRLALGLCMAAWLMAAALALPLTLQRQTFRLARSDRVLCHDALPLDAQASHWQPAFTCLALLGCFLPLLAMLLCYGATLHTLAASGRRYGHALRLTAVVLASAVAFFVPSNLLLLLHYSDPSPSAWGNLYGAYVPSLALSTLNSCVDPFIYYYVSAEFRDKVRAGLFQRSPGDTVASKASAEGGSRGMGTHSSLLQ [F2RL3] | 894 ± 240
7 | MWNATPSEEPGFNLTLADLDWDASPGNDSLGDELLQLFPAPLLAGVTATCVALFVVGIAGNLLTMLVVSRFRELRTTTNLYLSSMAFSDLLIFLCMPLDLVRLWQYRPWNFGDLLCKLFQFVSESCTYATVLTITALSVERYFAICFPLRAKVVVTKGRVKLVIFVIWAVAFCSAGPIFVLVGVEHENGTDPWDTNECRPTEFAVRSGLLTVMVWVSSIFFFLPVFCLTVLYSLIGRKLWRRRRGDAVVGASLRDQNHKQTVKMLAVVVFAFILCWLPFHVGRYLFSKSFEPGSLEIAQISQYCNLVSFVLFYLSAAINPILYNIMSKKYRVAVFRLLGFEPFSQRKLSTLKDESSRAWTESSINT [GHSR] | 1480 ± 520
8 | MWPNGSSLGPCFRPTNITLEERRLIASPWFAASFCVVGLASNLLALSVLAGARQGGSHTRSSFLTFLCGLVLTDFLGLLVTGTIVVSQHAALFEWHAVDPGCRLCRFMGVVMIFFGLSPLLLGAAMASERYLGITRPFSRPAVASQRRAWATVGLVWAAALALGLLPLLGVGRYTVQYPGSWCFLTLGAESGDVAFGLLFSMLGGLSVGLSFLLNTVSVATLCHVYHGQEAAQQRPRDSEVEMMAQLLGIMVVASVCWLPLLVFIAQTVLRNPPAMSPAGQLSRTTEKELLIYLRVATWNQILDPWVYILFRRAVLRRLQPRLSTRPRSLSLQPQLTQRSGLQ [TBXA2R] | 6469 ± 48

Same assay, conditions: GPCR class: A (Olfactory)

Row | Sequence | plasma membrane surface immunostaining intensity
9 | MVLASGNSSSHPVSFILLGIPGLESFQLWIAFPFCATYAVAVVGNITLLHVIRIDHTLHEPMYLFLAMLAITDLVLSSSTQPKMLAIFWFHAHEIQYHACLIQVFFIHAFSSVESGVLMAMALDCYVAICFPLRHSSILTPSVVIKLGTIVMLRGLLWVSPFCFMVSRMPFCQHQAIPQSYCEHMAVLKLVCADTSISRGNGLFVAFSVAGFDMIVIGMSYVMILRAVLQLPSGEARLKAFSTRSSHICVILALYIPALFSFLTYRFGHDVPRVVHILFANLYLLIPPMLNPIIYGVRTKQIGDRVIQGCCGNIP [OR52R1] | 173 ± 48
10 | MVLNVYCCFFQISDIQTMKINQTILKEFILVGFSVYPHVQTFLFVVFFCLYLLTLAGNLIIMGLTWVDRSLHTPMYLFLSALSFSETCYTLTIVPKMLEDLLAKDRSISVTGCSLQMCFFLGLGGTNCIILTLMGYDRFLAICNPLRYPLLMTNIVCGQLVASACTAGFFISLTETALIFRDSFCRPNLVKHFFCHMLAVIRLSCIDSNHTEFIITLISVSGLLGTLLLIILTDVFIISTVLRIPSAEGKQKAFTTCASHLTVVIIHFGFASIVYLKPEASGDDTLIAVPYTVITPFLSPIIFSLRNKDMKNAFRRMMGNTVALKK [OR10X1] | 233 ± 96
11 | MVNQSSTPGFLLLGFSEHPGLERTLFVVVLTSYLLTLVGNTLIILLSALDPKLHSPMYFFLSNLSFLDLCFTTSCVPQMLVNLWGPKKTISFLDCSVQIFIFLSLGTTECILLTVMAFDRYVAVCQPLHYATIIHPRLCWQLASVAWVIGLVESVVQTPSTLHLPFCPDRQVDDFVCEVPALIRLSCEDTSYNEIQVAVASVFILVVPLSLILVSYGAITWAVLRINSAKGRRKAFGTCSSHLTVVTLFYSSVIAVYLQPKNPYAQERGKFFGLFYAVGTPSLNPLIYTLRNKEVTRAFRRLLGKEMGLTQS [OR2H2] | 145 ± 10
12 | MVWENQTFNSIFILLGIFNHSPTHTFLFSLVLGIFSLALMENISMVLLIYIEKQLHTPMYFLLSQLSLMDLMLICTTLPKMIFSYLSGKKSISLAGCGTQIFFYVSLLGAECFLLAVMAYDRYVAICHPLQYTILMNPKLCVFMTVASWTLGSLDGIIVLAAVLSFSYCSSLEIHHFFCDVAALLPLSCTETSAFERLLVICCVVMLIFPVSVIILSYSHVLRAVIHMGSGESRRKAFTTCSSHLSVVGLYYGAAMFMYMRPASKHTPDQDKMVSAFYTILTPMLNPLIYSLRNKEVFRALQKVLKKRKLI [OR2M4] | 172 ± 36
13 | MWQEYYFLNVFFPLLKVCCLTINSHVVILLPWECYHLIWKILPYIGTTVGSMEEYNTSSTDFTFMGLFNRKETSGLIFAIISIIFFTALMANGVMIFLIQTDLRLHTPMYFLLSHLSLIDMMYISTIVPKMLVNYLLDQRTISFVGCTAQHFLYLTLVGAEFFLLGLMAYDRYVAICNPLRYPVLMSRRVCWMIIAGSWFGGSLDGFLLTPITMSFPFCNSREINHFFCEAPAVLKLACADTALYETVMYVCCVLMLLIPFSVVLASYARILTTVQCMSSVEGRKKAFATCSSHMTVVSLFYGAAMYTYMLPHSYHKPAQDKVLSVFYTILTPMLNPLIYSLRNKDVTGALKRALGRFKGPQRVSGGVF [OR2T1] | 451 ± 170
14 | MWQKNQTSLADFILEGLFDDSLTHLFLFSLTMVVFLIAVSGNTLTILLICIDPQLHTPMYFLLSQLSLMDLMHVSTIILKMATNYLSGKKSISFVGCATQHFLYLCLGGAECFLLAVMSYDRYVAICHPLRYAVLMNKKVGLMMAVMSWLGASVNSLIHMAILMHFPFCGPRKVYHFYCEFPAVVKLVCGDITVYETTVYISSILLLLPIFLISTSYVFILQSVIQMRSSGSKRNAFATCGSHLTVVSLWFGACIFSYMRPRSQCTLLQNKVGSVFYSIITPTLNSLIYTLRNKDVAKALRRVLRRDVITQCIQRLQLWLPRV [OR2AE1] | 159 ± 49

Same assay, conditions: GPCR class: C

Row | Sequence | plasma membrane surface immunostaining intensity
15 | MYKDCIESTGDYFLLCDAEGPWGIILESLAILGIVVTILLLLAFLFLMRKIQDCSQWNVLPTQLLFLLSVLGLFGLAFAFIIELNQQTAPVRYFLFGVLFALCFSCLLAHASNLVKLVRGCVSFSWTTILCIAIGCSLLQIIIATEYVTLIMTRGMMFVNMTPCQLNVDFVVLLVYVLFLMALTFFVSKATFCGPCENWKQHGRLIFITVLFSIIIWVVWISMLLRGNPQFQRQPQWDDPVVCIALVTNAWVFLLLYIVPELCILYRSCRQECPLQGNACPVTAYQHSFQVENQELSRARDSDGAEEDVALTSYGTPIQPQTVDPTQECFIPQAKLSPQQDAGGV [GPRC5D] | 6410 ± 68

Same assay, conditions: GPCR class: Vomeronasal

Row | Sequence | plasma membrane surface immunostaining intensity
16 | MVGDTLKLLSPLMTRYFFLLFYSTDSSDLNENQHPLDFDEMAFGKVKSGISFLIQTGVGILGNSFLLCFYNLILFTGHKLRPTDLILSQLALANSMVLFFKGIPQTMAAFGLKYLLNDTGCKFVFYYHRVGTRVSLSTICLLNGFQAIKLNPSICRWMEIKIRSPRFIDFCCLLCWAPHVLMNASVLLLVNGPLNSKNSSAKNNYGYCSYKASKRFSSLHAVLYFSPDFMSLGFMVWASGSMVFFLYRHKQQVQHNHSNRLSCRPSQEARATHTIMVLVSSFFVFYSVHSFLTIWTTVVANPGQWIVTNSVLVASCFPARSPFVLIMSDTHISQFCFACRTRKTLFPNLVVMP [VN1R1] | 140 ± 8.3
